Square brackets hold non-standard residues; d marks the D form. Ends that are not written are not given here. Phe(4-Ac) = CC(=O)c1ccc(C[C@H](N)C(=O)O)cc1
T1: human RXFP1 receptor (human, UniProt Q9HBX9 1-757)
T1 sequence (looked up): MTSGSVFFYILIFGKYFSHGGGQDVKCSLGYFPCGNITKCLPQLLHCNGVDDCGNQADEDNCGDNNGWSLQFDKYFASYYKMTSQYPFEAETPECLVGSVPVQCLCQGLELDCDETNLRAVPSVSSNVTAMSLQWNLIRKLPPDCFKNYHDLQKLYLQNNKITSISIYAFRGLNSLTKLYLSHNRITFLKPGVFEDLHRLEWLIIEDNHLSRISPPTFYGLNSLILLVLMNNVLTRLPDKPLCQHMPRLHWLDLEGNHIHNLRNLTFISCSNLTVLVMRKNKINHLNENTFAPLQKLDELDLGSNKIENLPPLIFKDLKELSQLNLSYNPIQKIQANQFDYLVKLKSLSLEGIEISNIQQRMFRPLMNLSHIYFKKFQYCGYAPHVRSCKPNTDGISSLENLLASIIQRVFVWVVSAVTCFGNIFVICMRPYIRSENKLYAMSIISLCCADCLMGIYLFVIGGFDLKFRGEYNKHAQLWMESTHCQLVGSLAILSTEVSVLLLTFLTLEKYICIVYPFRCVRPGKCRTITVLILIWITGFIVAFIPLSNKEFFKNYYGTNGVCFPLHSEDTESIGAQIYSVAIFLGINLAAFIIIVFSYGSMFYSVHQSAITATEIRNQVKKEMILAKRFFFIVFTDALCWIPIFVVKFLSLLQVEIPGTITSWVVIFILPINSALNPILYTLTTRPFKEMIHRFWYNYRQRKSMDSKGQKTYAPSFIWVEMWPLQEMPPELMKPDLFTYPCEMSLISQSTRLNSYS

B1: AQ1-GSGSGSGS-Glu^γ-C15-COOH (ligand)
chain 1: XLYSALANKCCHVGCTKRSLARFC
chain 2: ASWMEEVIKLCGRELVRAQIAICGMSTWS
peptide: GSGSGSGSE
modifications: not fully specified; Glu^γ bonded by amide to fatty acid -C15-COOH; oxime-linked to pAcF of the A chain; pAcF (para-acetyl-L-phenylalanine) at position 1, oxime-linked to PK enhancer GSGSGSGS-Glu^γ-C15-COOH
B2: AQ1-dKdKdKdKdKdK-Glu^γ-C13-COOH (ligand)
chain 1: XLYSALANKCCHVGCTKRSLARFC
chain 2: ASWMEEVIKLCGRELVRAQIAICGMSTWS
peptide: KKKKKKE
modifications: not fully specified; dK = D-lysine (six); Glu^γ bonded by amide to fatty acid -C13-COOH; oxime-linked to pAcF of the A chain; pAcF (para-acetyl-L-phenylalanine) at position 1, oxime-linked to PK enhancer dKdKdKdKdKdK-Glu^γ-C13-COOH
B3: AQ1-EEEGGG-Glu^γ-C13-COOH (ligand)
chain 1: XLYSALANKCCHVGCTKRSLARFC
chain 2: ASWMEEVIKLCGRELVRAQIAICGMSTWS
peptide: EEEGGGE
modifications: not fully specified; Glu^γ bonded by amide to fatty acid -C13-COOH; oxime-linked to pAcF of the A chain; pAcF (para-acetyl-L-phenylalanine) at position 1, oxime-linked to PK enhancer EEEGGG-Glu^γ-C13-COOH
B4: AQ1-GGGKKK-Glu^γ-C13-COOH (ligand)
chain 1: XLYSALANKCCHVGCTKRSLARFC
chain 2: ASWMEEVIKLCGRELVRAQIAICGMSTWS
peptide: GGGKKKE
modifications: not fully specified; Glu^γ bonded by amide to fatty acid -C13-COOH; oxime-linked to pAcF of the A chain; pAcF (para-acetyl-L-phenylalanine) at position 1, oxime-linked to PK enhancer GGGKKK-Glu^γ-C13-COOH
B5: AQ1-RGGEEKKKEKEK-Glu^γ-C13-COOH (ligand)
chain 1: XLYSALANKCCHVGCTKRSLARFC
chain 2: ASWMEEVIKLCGRELVRAQIAICGMSTWS
peptide: RGGEEKKKEKEKE
modifications: not fully specified; Glu^γ bonded by amide to fatty acid -C13-COOH; oxime-linked to pAcF of the A chain; pAcF (para-acetyl-L-phenylalanine) at position 1, oxime-linked to PK enhancer RGGEEKKKEKEK-Glu^γ-C13-COOH
B6: RLX-BM25/AN1 (ligand)
chain 1: NLYSALANKCCHVGCTKRSLARFC
chain 2: ASWMEEVIKLCGRELVRAQIAICG[Phe(4-Ac)]STWS
modifications: disulfide (positions not given here); ends not checked
B7: AQ1-EEEGGG-Glu^γ-C14-COOH (ligand)
chain 1: XLYSALANKCCHVGCTKRSLARFC
chain 2: ASWMEEVIKLCGRELVRAQIAICGMSTWS
peptide: EEEGGGE
modifications: not fully specified; Glu^γ bonded by amide to fatty acid -C14-COOH; oxime-linked to pAcF of the A chain; pAcF (para-acetyl-L-phenylalanine) at position 1, oxime-linked to PK enhancer EEEGGG-Glu^γ-C14-COOH
B8: AQ1-KKKSGGSGG-Glu^γ-C13-COOH (ligand)
chain 1: XLYSALANKCCHVGCTKRSLARFC
chain 2: ASWMEEVIKLCGRELVRAQIAICGMSTWS
peptide: KKKSGGSGGE
modifications: not fully specified; Glu^γ bonded by amide to fatty acid -C13-COOH; oxime-linked to pAcF of the A chain; pAcF (para-acetyl-L-phenylalanine) at position 1, oxime-linked to PK enhancer KKKSGGSGG-Glu^γ-C13-COOH
B9: AQ1-GGGEEE-Glu^γ-C13-COOH (ligand)
chain 1: XLYSALANKCCHVGCTKRSLARFC
chain 2: ASWMEEVIKLCGRELVRAQIAICGMSTWS
peptide: GGGEEEE
modifications: not fully specified; Glu^γ bonded by amide to fatty acid -C13-COOH; oxime-linked to pAcF of the A chain; pAcF (para-acetyl-L-phenylalanine) at position 1, oxime-linked to PK enhancer GGGEEE-Glu^γ-C13-COOH
B10: AQ1-Sar-Sar-Sar-Glu-Glu-Glu^γ-C13-COOH (ligand)
chain 1: XLYSALANKCCHVGCTKRSLARFC
chain 2: ASWMEEVIKLCGRELVRAQIAICGMSTWS
peptide: XXXEEE
modifications: not fully specified; Sar = sarcosine (N-methylglycine); Glu^γ bonded by amide to fatty acid -C13-COOH; oxime-linked to pAcF of the A chain; pAcF (para-acetyl-L-phenylalanine) at position 1, oxime-linked to PK enhancer Sar-Sar-Sar-Glu-Glu-Glu^γ-C13-COOH
B11: AQ1-GGGGS-Glu^γ-C13-COOH (ligand)
chain 1: XLYSALANKCCHVGCTKRSLARFC
chain 2: ASWMEEVIKLCGRELVRAQIAICGMSTWS
peptide: GGGGSE
modifications: not fully specified; Glu^γ bonded by amide to fatty acid -C13-COOH; oxime-linked to pAcF of the A chain; pAcF (para-acetyl-L-phenylalanine) at position 1, oxime-linked to PK enhancer GGGGS-Glu^γ-C13-COOH
B12: AQ1-KKSGGSGGEE-Glu^γ-C13-COOH (ligand)
chain 1: XLYSALANKCCHVGCTKRSLARFC
chain 2: ASWMEEVIKLCGRELVRAQIAICGMSTWS
peptide: KKSGGSGGEEE
modifications: not fully specified; Glu^γ bonded by amide to fatty acid -C13-COOH; oxime-linked to pAcF of the A chain; pAcF (para-acetyl-L-phenylalanine) at position 1, oxime-linked to PK enhancer KKSGGSGGEE-Glu^γ-C13-COOH
B13: BM25/AN1-C13-CH3 (ligand)
chain 1: NLYSALANKCCHVGCTKRSLARFC
chain 2: ASWMEEVIKLCGRELVRAQIAICG[Phe(4-Ac)]STWS
modifications: disulfide (positions not given here); not fully specified (some residues); ends not checked; also: PK enhancer C13-CH3 oxime-linked to pAcF25
B14: AQ1-KKKGGG-Glu^γ-C13-COOH (ligand)
chain 1: XLYSALANKCCHVGCTKRSLARFC
chain 2: ASWMEEVIKLCGRELVRAQIAICGMSTWS
peptide: KKKGGGE
modifications: not fully specified; Glu^γ bonded by amide to fatty acid -C13-COOH; oxime-linked to pAcF of the A chain; pAcF (para-acetyl-L-phenylalanine) at position 1, oxime-linked to PK enhancer KKKGGG-Glu^γ-C13-COOH
B15: AQ1-EEEEEE-Glu^γ-C15-COOH (ligand)
chain 1: XLYSALANKCCHVGCTKRSLARFC
chain 2: ASWMEEVIKLCGRELVRAQIAICGMSTWS
peptide: EEEEEEE
modifications: not fully specified; Glu^γ bonded by amide to fatty acid -C15-COOH; oxime-linked to pAcF of the A chain; pAcF (para-acetyl-L-phenylalanine) at position 1, oxime-linked to PK enhancer EEEEEE-Glu^γ-C15-COOH
B16: AQ1-EEEGGG-Glu^γ-C15-CH3 (ligand)
chain 1: XLYSALANKCCHVGCTKRSLARFC
chain 2: ASWMEEVIKLCGRELVRAQIAICGMSTWS
peptide: EEEGGGE
modifications: not fully specified; Glu^γ bonded by amide to fatty acid -C15-CH3; oxime-linked to pAcF of the A chain; pAcF (para-acetyl-L-phenylalanine) at position 1, oxime-linked to PK enhancer EEEGGG-Glu^γ-C15-CH3
B17: AQ1-Sar-Sar-Sar-Sar-Ser-Sar-Sar-Sar-Sar-Glu^γ-C13-COOH (ligand)
chain 1: XLYSALANKCCHVGCTKRSLARFC
chain 2: ASWMEEVIKLCGRELVRAQIAICGMSTWS
peptide: XXXXSXXXXE
modifications: not fully specified; Sar = sarcosine (N-methylglycine); Glu^γ bonded by amide to fatty acid -C13-COOH; oxime-linked to pAcF of the A chain; pAcF (para-acetyl-L-phenylalanine) at position 1, oxime-linked to PK enhancer Sar-Sar-Sar-Sar-Ser-Sar-Sar-Sar-Sar-Glu^γ-C13-COOH
B18: AQ1-Compound 39 (ligand)
chain 1: XLYSALANKCCHVGCTKRSLARFC
chain 2: ASWMEEVIKLCGRELVRAQIAICGMSTWS
modifications: pAcF (para-acetyl-L-phenylalanine) at position 1, oxime-linked to Compound 39 ((S)-1-(aminooxy)-33-carboxy-4,7,17,27,35-pentaoxo-11,14,21,24-tetraoxa-3,8,18,28,34-pentaazadopentacontan-52-oic acid)

target: T1, human RXFP1 receptor; test: cell-based or functional assay

Compared with B1, B2 is 28-fold lower in “hRXFP1/CHO-K1 cAMP EC50 (nM, avg)” value: 2.79 nM for the first, 0.1 nM for the second.

Compared with B3, B4 is 1.6-fold lower in “hRXFP1/CHO-K1 cAMP EC50 (nM, avg)” value: 0.31 nM for the first, 0.19 nM for the second.

Compared with B5, B6 is 3.2-fold lower in “hRXFP1/CHO-K1 cAMP EC50 (nM, avg)” value: 0.29 nM for the first, 0.09 nM for the second.

First: B7
Second: B8
The “hRXFP1/CHO-K1 cAMP EC50 (nM, avg)” value of the first is 13-fold higher: 1.88 nM for the first, 0.14 nM for the second.

Going from B9 to B10, the “hRXFP1/CHO-K1 cAMP EC50 (nM, avg)” value rises from 0.22 nM to 0.59 nM (2.7-fold).

B11 and B12 are within 1.5-fold of each other in “hRXFP1/CHO-K1 cAMP EC50 (nM, avg)” value: 0.14 nM for the first, 0.16 nM for the second.

Compared with B13, B14 is 21-fold lower in “hRXFP1/CHO-K1 cAMP EC50 (nM, avg)” value: 1.85 nM for the first, 0.09 nM for the second.

Compared with B15, B16 is 24-fold lower in “hRXFP1/CHO-K1 cAMP EC50 (nM, avg)” value: 11.1 nM for the first, 0.46 nM for the second.

First: B17
Second: B18
The “hRXFP1/CHO-K1 cAMP EC50 (nM, avg)” value of the first is 5.7-fold lower: 0.39 nM for the first, 2.23 nM for the second.
